Experimental data reported in the supplement of paper PMC10899765.

Legend:
Details in all cases: 20 nM; 72 h
[1] = tested on: MCF10A; experiment: one-nucleolus phenotype percent effect (relative to siNT 0% and siNOL11 100%); higher = more cells with one nucleolus (ribosome biogenesis inhibition)
Procedure: (§1)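 After 72 h, cells were fixed and stained with Hoechst and anti-fibrillarin, and nucleoli per nucleus were counted with CellProfiler. Values are plate-adjusted percent effect for the one-nucleolus and 5+ nucleoli phenotypes, normalised to siNT (0%) and to the positive controls siNOL11 or siKIF11 (100%), as the mean of biological triplicates. Percent viability is the nuclei count relative to siNT.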

[2] = tested on: MCF10A; experiment: 5+ nucleoli phenotype percent effect (relative to siNT 0% and siKIF11 100%); higher = more cells with five or more nucleoli
Procedure: as §1

[3] = tested on: MCF10A; experiment: percent viability (nuclei count relative to siNT); higher = more viable cells
Procedure: as §1

Row | Sequence | one-nucleolus phenotype percent effect [1] [%] | 5+ nucleoli phenotype percent effect [2] [%] | percent viability [3] [%]
1 | AAAGGUAAUUGUGGUUUCUGC [hsa-miR-548ag] | -6.82 | 4.63 | 75.7
2 | CGAGCCUCAAGCAAGGGACUU [hsa-miR-2114-3p] | 19.8 | -15.9 | 32.7
3 | AACAAUAUCCUGGUGCUGAGUG [hsa-miR-338-5p] | -0.375 | -1.58 | 47.6
4 | AUGGCAUCGUCCCCUGGUGGCU [hsa-miR-4642] | 16.6 | -4.74 | 31.3
5 | UGGAUUUUUGGAUCAGGGA [hsa-miR-1290] | 7 | -26.7 | 51
6 | GAGGCUGAGCUGAGGAG [hsa-miR-4478] | 35.1 | -17.6 | 22.9
7 | AGAGGCUUUGUGCGGAUACGGGG [hsa-miR-3188] | 33.1 | -26 | 29.7
8 | AAUGGCGCCACUAGGGUUGUG [hsa-miR-652-3p] | 7.39 | 4.15 | 58.1
9 | CUGUACAACCUUCUAGCUUUCC [hsa-let-7c-3p] | -4.89 | -7.45 | 74.2
10 | AUAGCAGCAUGAACCUGUCUCA [hsa-miR-4524a-5p] | 21.6 | -12.6 | 24.9
11 | AAAGUGCUUCCUUUUAGAGGGU [hsa-miR-520c-3p] | -14.7 | 44.6 | 74.6
12 | AGGGGGUAGAAAGUGGCUGAAG [hsa-miR-6835-5p] | 11.4 | -24.3 | 14.9
13 | UCAUCCCCCUCGCCCUCUCAG [hsa-miR-6729-3p] | -21.1 | 10.2 | 58.8
14 | UGCUGGAUCAGUGGUUCGAGUC [hsa-miR-1287] | 64.1 | -26.2 | 25.2
15 | UGGGUCUUUGCGGGCGAGAUGA [hsa-miR-193a-5p] | 26.5 | -18.7 | 40.4
16 | UCCUCAUCACACUGCACCUUAG [hsa-miR-6072] | 13.4 | -18.4 | 32.4
17 | AGAAGAAGGCGGUCGGUCUGCGG [hsa-miR-3185] | 33.8 | -27.8 | 29.1
18 | ACCAUCGACCGUUGAUUGUACC [hsa-miR-181a-3p] | -7.58 | 21.1 | 87.3
19 | CUCCUCUGUUUUCUUUCCUAG [hsa-miR-6780a-3p] | 25.3 | -34.9 | 34.4
20 | UCUAGUAAGAGUGGCAGUCGA [hsa-miR-628-3p] | -7.59 | 31.5 | 55.8

Row | Sequence | one-nucleolus phenotype percent effect [1] [%] | 5+ nucleoli phenotype percent effect [2] [%] | percent viability [3] [%]
21 | UCUUUUCUUUGAGACUCACU [hsa-miR-627-3p] | -15.6 | 21.8 | 34.1
22 | CAAAGACUGCAAUUACUUUUGCG [hsa-miR-548u] | -31.1 | 43.4 | 75.7
23 | CAGUGCAAUGAUAUUGUCAAAGC [hsa-miR-301b] | -11.1 | 45.2 | 95.6
24 | CCAGUCCUGUGCCUGCCGCCU [hsa-miR-1910] | 3.9 | 6.81 | 100
25 | AGGUAGACUGGGAUUUGUUGUU [hsa-miR-3529-5p] | 27.4 | -26.7 | 21.7
26 | CGGGGUGGGUGAGGUCGGGC [hsa-miR-4651] | 2.27 | -1.6 | 33.5
27 | GGAGAAAUUAUCCUUGGUGUGU [hsa-miR-539-5p] | -14.8 | 17.9 | 55.7
28 | ACUGGCAUGCUGCAUUUAUAUA [hsa-miR-4799-3p] | -19.8 | 50.9 | 66.3
29 | CACUGCAUUCCUGCUUGGCCCAG [hsa-miR-6807-3p] | -9.99 | 6.87 | 48.2
30 | UAACUGGUUGAACAACUGAACC [hsa-miR-582-3p] | -29.8 | 31.1 | 106
31 | CUGAACUAGAGAUUGGGCCCA [hsa-miR-7158-3p] | 16 | -10.2 | 32.7
32 | GAGCUUGGAUGAGCUGGGCUGA [hsa-miR-4538] | 14.4 | -29.6 | 25.3
33 | UUGUACAUGGUAGGCUUUCAUU [hsa-miR-493-5p] | 3.68 | -9.79 | 81.7
34 | ACAGUAGUCUGCACAUUGGUUA [hsa-miR-199b-3p] | -19.3 | 36.1 | 92
35 | CCUGGUGGCUUCCUUUU [hsa-miR-4456] | 6.37 | -4.84 | 23.6
36 | AAAGUUCUGAGACACUCCGACU [hsa-miR-148a-5p] | -5.53 | 9.44 | 89
37 | AGACCCUGGUCUGCACUCUAUC [hsa-miR-504] | -10.9 | 3.4 | 64.6
38 | CAAAGUGCUGUUCGUGCAGGUAG [hsa-miR-93-5p] | -18.1 | 59.5 | 64.1
39 | GGGGUGGUCUGUUGUUG [hsa-miR-4483] | -25.2 | 44.6 | 5.44
40 | AGAGGUUAUCCGUGUUAUGUUC [hsa-miR-655-5p] | 22.9 | -32.8 | 32.4

Row | Sequence | one-nucleolus phenotype percent effect [1] [%] | 5+ nucleoli phenotype percent effect [2] [%] | percent viability [3] [%]
41 | UGUGACAGAUUGAUAACUGAAA [hsa-miR-542-3p] | 65.1 | -17.1 | 39.5
42 | AGGCUGGAGUGAGCGGAG [hsa-miR-4430] | 57.5 | -22 | 12.7
43 | AGAUGUAUGGAAUCUGUAUAUAUC [hsa-miR-3171] | -12.5 | 13.6 | 91.9
44 | CCUGCAACUUUGCCUGAUCAGA [hsa-miR-4772-3p] | -15.1 | 16.6 | 47.3
45 | CAAAAGUAAUUGUGGAUUUUGU [hsa-miR-548n] | -23.6 | 52.2 | 137
46 | ACGUUGGCUCUGGUGGUG [hsa-miR-1306-3p] | 38.2 | -4.59 | 18.4
47 | AGGAAUGUUCCUUCUUUGCC [hsa-miR-613] | 36.5 | -37.9 | 44.4
48 | ACAAAGUGCUUCCCUUUAGAGU [hsa-miR-520h] | -15 | 11.9 | 173
49 | CUGGGGUUCUGAGACAGACAGU [hsa-miR-3170] | 40.9 | -46.2 | 9.55
50 | GGAGGUUGGGAAGGGCAGAG [hsa-miR-6086] | -8.13 | 0.449 | 69.1
51 | AGCCCCUGCCCACCGCACACUG [hsa-miR-210-5p] | -21 | 53 | 101
52 | AAAAGCACUUUUCUGUCUCCCAG [hsa-miR-6835-3p] | 12.3 | -36 | 41.3
53 | GAAGUUGCCCAUGUUAUUUUCG [hsa-miR-495-5p] | 1.67 | -1.1 | 42.2
54 | UUGCUCUGCUCCCCCGCCCCCAG [hsa-miR-6805-3p] | -15.8 | 43.1 | 36.2
55 | CCCGGAGCCAGGAUGCAGCUC [hsa-miR-1203] | -10.2 | 4.95 | 68.6
56 | AAGUAGUUGGUUUGUAUGAGAUGGUU [hsa-miR-1244] | 12.3 | -0.297 | 44.6
57 | GGGGGGUGUGGAGCCAGGGGGC [hsa-miR-6752-5p] | -21.9 | 41.7 | 79.1
58 | GUCCUAGGAGGCUCCUCUG [hsa-miR-5571-3p] | 6.57 | -30 | 66.3
59 | AAUCAUACAGGGACAUCCAGUU [hsa-miR-487a] | -6.53 | -7.13 | 56
60 | UCUCAGGAGUAAAGACAGAGUU [hsa-miR-3664-3p] | -19.4 | 17.2 | 86.7
